Measured values taken from US20090089899A1, “Method for Enhancing Drought Stress Tolerance in Plants by Active AREB1” (priority 2005, published 2009).

Experiments:
[1] = system: RD29B gene; experiment: RNA gel blot (Northern) analysis of downstream gene RD29B in transformed plants; format: in vivo, Arabidopsis thaliana
Method: Extraction of total RNA from plant bodies and RNA gel blot analysis using the total RNA were performed according to the method of Satoh et al (2004, Plant Cell Physiol. 45, 309-317) using a Shakemaster crusher (Bio Medical Science, Tokyo, Japan). Furthermore, probes for RNA gel blot analysis were prepared according to the method of Maruyama et al (2004, Plant J. 38, 982-993).
To prepare a pBE2113Not-AREB1 plasmid, the entire coding region of AREB1 was amplified by PCR using a primer with a Not I linker and then the resultant was introduced into pBE2113Not (Liu et al., 1998, Plant Cell 10, 1391-1406) in the sense orientation. pBE2113Not-AREB1ΔQT was prepared by amplifying the coding region of AREB1ΔQT by PCR using primers with Xba I and BamH I linkers and then introducing the resultant into the Xba I/BamH I site of pBE2113Not in the sense orientation.
To produce transformed plants with 35S-AREB1 and 35S-AREB1ΔQT, transformation vectors, pBE2113Not-AREB1 and pBE2113Not-AREB1ΔQT, were introduced into Arabidopsis thaliana (Columbia) by a suction-infiltration method (Osakabe et al., 2005, Plant Cell 17, 1105-1119) using the Agrobacterium tumefaciens C58 strain.
Here, it was examined whether or not overexpression of ABRE1ΔQT in Arabidopsis thaliana would activate the transcription of a downstream gene such as RD29B in the absence of external ABA. […]

[2] = system: RD29B-GUS reporter gene; experiment: Transient expression (transactivation) analysis with RD29B-GUS reporter in protoplasts of Arabidopsis thaliana T87 cells; format: cell-based; conditions: in the presence of 50 μM abscisic acid (ABA)
Method: Analysis of transient expression was performed using protoplasts derived from Arabidopsis thaliana T87 cells according to a slightly modified version of the method of Fujita et al (2004, Plant J. 39, 863-876) and the method of Satoh et al (2004, Plant Cell Physiol. 45, 309-317). Protoplast isolation and gene introduction were all performed at room temperature (25° C. to 28° C.). Protoplasts in which the gene had been introduced were allowed to stand for 16 to 20 hours at 22° C. in the dark. An enzyme solution [0.4 M mannitol, 1.5% (w/v) cellulase “Onozuka” R-10 (Yakult, Tokyo, Japan), 0.3% (w/v) macerozyme R-10 (Yakult), 0.1% (w/v) bovine serum albumin, 10 mM CaCl2, 20 mM KCl, and 20 mM MES, pH 5.7] was prepared according to the method of Sheen (2002) (http://genetics.mgh.harvard.edu/sheenweb/).
A DNA fragment containing a portion or the whole of AREB1 cDNA was amplified by PCR and then the product was cloned into the Not I site of an expression vector pBI35SΩ (Abe et al., 1997, Plant Cell 9, 1859-1868). Thus, a plasmid having an AREB1 bZIP DNA binding domain was prepared. The plasmid was then used for an experiment for the analysis of transient expression. To remove a 640-base-pair fragment that was partially cleaved with EcoT14I from the pBI35SΩ-AREB1 plasmid, self-binding ligase reaction was performed after partial cleavage with EcoT14I. […]

| Molecule | expression of the downstream gene RD29B (Northern analysis) ([1]; wild-type (WT) and vector control plants, 50 μM ABA, 7 hours) | GUS activity (RD29B-GUS reporter) [2] | expression of the downstream RD29B gene (Northern analysis) ([1]; 2-week-old seedlings of transformed plants, in the absence of ABA) |
| --- | --- | --- | --- |
| CC1=CC(=O)CC(C)(C)[C@@]1(O)/C=C/C(C)=C\C(=O)O [ABA, abscisic acid, reference compound] | could be confirmed only in the presence of 50 μM ABA | – | – |
| full-length AREB1: full-length Arabidopsis thaliana AREB1 protein (SEQ ID NO: 2), expressed from full-length cDNA under 35S promoter (protein, listed as Arabidopsis thaliana) MDGSMNLGNEPPGDGGGGGGLTRQGSIYSLTFDEFQSSVGKDFGSMNMDELLKNIWSAEETQAMASGVVPVLGGGQEGLQLQRQGSLTLPRTLSQKTVDQVWKDLSKVGSSGVGGSNLSQVAQAQSQSQSQRQQTLGEVTLEEFLVRAGVVREEAQVAARAQIAENNKGGYFGNDANTGFSVEFQQPSPRVVAAGVMGNLGAETANSLQVQGSSLPLNVNGARTTYQQSQQQQPIMPKQPGFGYGTQMGQLNSPGIRGGGLVGLGDQSLTNNVGFVQGASAAIPGALGVGAVSPVTPLSSEGIGKSNGDSSSLSPSPYMFNGGVRGRKSGTVEKVVERRQRRMIKNRESAARSRARKQAYTVELEAEVAKLKEENDELQRKQARIMEMQKNQETEMRNLLQGGPKKKLRRTESGPW | – | significant enhancement in GUS activity | not observed |
